The record followed here is the supplement of paper PMC9112550, “Optimization of the antimicrobial peptide Bac7 by deep mutational scanning” (BMC Biology, 2022).

In this data set the test system is Escherichia coli TOP10. Briefly: shrunken log2 fold change of peptide-encoding DNA abundance (4.5 h post-induction vs induction); higher = less antimicrobial activity (less host growth inhibition). Particulars: time post-induction: 4.5 h; library: site-saturation at positions 5, 18, 19, 20.
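Also: peptides expressed intracellularly from a pBAD plasmid library in pooled LB shake-flask culture, induced with 0.3% L-arabinose, DNA abundance read by NGS, three biological replicates, DESeq2 with apeglm shrinkage.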

As for RRIRNRPPRLPRPRPRPAICPRP, the “shrunken log2 fold change” value was -0.0274.

As for RRIRHRPPRLPRPRPRPECTPRP, the “shrunken log2 fold change” value was 0.154. RRIRCRPPRLPRPRPRPAYVPRP: the “shrunken log2 fold change” value was -0.288.

For the sequence RRIRLRPPRLPRPRPRPIQNPRP, the “shrunken log2 fold change” value was -0.403.

As to RRIRSRPPRLPRPRPRPMVFPRP, the “shrunken log2 fold change” value is 0.104.

In the case of RRIRYRPPRLPRPRPRPMSVPRP, the “shrunken log2 fold change” value is -0.0288.

As to RRIRVRPPRLPRPRPRPGHPPRP, the “shrunken log2 fold change” value is 0.146. Regarding RRIRRRPPRLPRPRPRPHMPPRP, the “shrunken log2 fold change” value is -0.037.

For RRIRERPPRLPRPRPRPMDMPRP, the “shrunken log2 fold change” value was -0.189. On to RRIRDRPPRLPRPRPRPRMGPRP, for which the “shrunken log2 fold change” value came out at 0.161. On to RRIRWRPPRLPRPRPRPPQSPRP, for which the “shrunken log2 fold change” value was determined as 0.128. As for RRIRCRPPRLPRPRPRPQFWPRP, the “shrunken log2 fold change” value came to 0.303.

As for RRIRVRPPRLPRPRPRPVQTPRP, the “shrunken log2 fold change” value stood at 0.0297.

With RRIRTRPPRLPRPRPRPNRNPRP, the “shrunken log2 fold change” value is -0.544. As for RRIRRRPPRLPRPRPRPWFGPRP, the “shrunken log2 fold change” value is -0.161. In the case of RRIRLRPPRLPRPRPRPLYIPRP, the “shrunken log2 fold change” value was -0.932. With RRIRDRPPRLPRPRPRPYFFPRP the figure was -0.287; with RRIRPRPPRLPRPRPRPKKYPRP, -0.555. With RRIRVRPPRLPRPRPRPRFNPRP, the “shrunken log2 fold change” value was -0.264. Turning to RRIRDRPPRLPRPRPRPQNSPRP, the “shrunken log2 fold change” value is -0.24.

As for RRIRRRPPRLPRPRPRPGMGPRP, the “shrunken log2 fold change” value amounted to 0.581. With RRIRIRPPRLPRPRPRPTEHPRP the figure was -0.449. On to RRIRQRPPRLPRPRPRPYLNPRP, for which the “shrunken log2 fold change” value was -0.329. Then RRIRKRPPRLPRPRPRPKSTPRP, with 0.0348; and RRIRHRPPRLPRPRPRPVNCPRP, with 0.00367; and RRIRQRPPRLPRPRPRPCMGPRP, with -0.124. Turning to RRIRTRPPRLPRPRPRPKAEPRP, the “shrunken log2 fold change” value was -0.000916. With RRIRWRPPRLPRPRPRPIPSPRP the figure was 0.0317.

Regarding RRIRERPPRLPRPRPRPADIPRP, the “shrunken log2 fold change” value amounted to 0.033. On to RRIRQRPPRLPRPRPRPFAYPRP, for which the “shrunken log2 fold change” value is -0.0651. RRIRRRPPRLPRPRPRPFIEPRP: the “shrunken log2 fold change” value was found to be 0.0206. In the case of RRIRQRPPRLPRPRPRPVERPRP, the “shrunken log2 fold change” value was -0.0839. As for RRIRMRPPRLPRPRPRPVMLPRP, the “shrunken log2 fold change” value was -0.28. RRIRCRPPRLPRPRPRPMTIPRP: the “shrunken log2 fold change” value was -0.128.

In the case of RRIRVRPPRLPRPRPRPFINPRP, the “shrunken log2 fold change” value was -0.192. On to RRIRCRPPRLPRPRPRPYSHPRP, for which the “shrunken log2 fold change” value is -0.595.

Consider RRIRYRPPRLPRPRPRPQTWPRP, for which the “shrunken log2 fold change” value was -0.573. Then RRIRTRPPRLPRPRPRPNTLPRP, with -0.377; and RRIRIRPPRLPRPRPRPIRCPRP, with 0.0793. For RRIRLRPPRLPRPRPRPVYCPRP, the “shrunken log2 fold change” value is -0.303. Regarding RRIRCRPPRLPRPRPRPMIYPRP, the “shrunken log2 fold change” value is -0.144. Then RRIRNRPPRLPRPRPRPTKVPRP, with -0.153; and RRIRYRPPRLPRPRPRPCPQPRP, with -0.0849. On to RRIRVRPPRLPRPRPRPTFQPRP, for which the “shrunken log2 fold change” value is -0.0952. With RRIRFRPPRLPRPRPRPFWTPRP the figure was -0.257; with RRIRTRPPRLPRPRPRPKADPRP, -0.0127; with RRIRCRPPRLPRPRPRPCTMPRP, -0.725.

On to RRIRWRPPRLPRPRPRPNNHPRP, for which the “shrunken log2 fold change” value is -0.588. With RRIRWRPPRLPRPRPRPNCNPRP the figure was -0.101; with RRIRARPPRLPRPRPRPICPPRP, 0.0597. Then RRIRFRPPRLPRPRPRPANIPRP, with -0.0774; and RRIRNRPPRLPRPRPRPKIDPRP, with -0.626. As for RRIRIRPPRLPRPRPRPDYLPRP, the “shrunken log2 fold change” value is -0.0127. With RRIRYRPPRLPRPRPRPIRKPRP, the “shrunken log2 fold change” value was -0.0667. In the case of RRIRPRPPRLPRPRPRPDCFPRP, the “shrunken log2 fold change” value worked out at 0.112. RRIRQRPPRLPRPRPRPQRYPRP: the “shrunken log2 fold change” value is -0.0112.

As to RRIRYRPPRLPRPRPRPVLWPRP, the “shrunken log2 fold change” value came out at 0.0894. In the case of RRIRIRPPRLPRPRPRPDCYPRP, the “shrunken log2 fold change” value is -0.226. Then RRIRKRPPRLPRPRPRPQMDPRP, with 0.618; and RRIRERPPRLPRPRPRPNFDPRP, with -0.145; and RRIRFRPPRLPRPRPRPDGIPRP, with -0.255. For the sequence RRIRSRPPRLPRPRPRPGSAPRP, the “shrunken log2 fold change” value was 0.231. Regarding RRIRRRPPRLPRPRPRPQWEPRP, the “shrunken log2 fold change” value is -0.0504. In the case of RRIRNRPPRLPRPRPRPFPNPRP, the “shrunken log2 fold change” value was -0.33. RRIRARPPRLPRPRPRPDTCPRP: the “shrunken log2 fold change” value was -0.162. As to RRIRMRPPRLPRPRPRPNPYPRP, the “shrunken log2 fold change” value was -0.0714. For RRIRARPPRLPRPRPRPFECPRP, the “shrunken log2 fold change” value was -0.00737. In the case of RRIRTRPPRLPRPRPRPCYSPRP, the “shrunken log2 fold change” value is -0.0481.

As for RRIRVRPPRLPRPRPRPCTGPRP, the “shrunken log2 fold change” value was -1.78. Then RRIRSRPPRLPRPRPRPMFEPRP, with -0.0573; and RRIRLRPPRLPRPRPRPIWWPRP, with 0.94. Regarding RRIRFRPPRLPRPRPRPPVFPRP, the “shrunken log2 fold change” value was 0.138. RRIRPRPPRLPRPRPRPDAQPRP: the “shrunken log2 fold change” value is 0.271. Take RRIRRRPPRLPRPRPRPNSGPRP: the “shrunken log2 fold change” value was 0.279. Take RRIRKRPPRLPRPRPRPSDLPRP: the “shrunken log2 fold change” value worked out at 0.154. Turning to RRIRGRPPRLPRPRPRPKWKPRP, the “shrunken log2 fold change” value worked out at 0.202. RRIRTRPPRLPRPRPRPRCHPRP: the “shrunken log2 fold change” value was -0.334. With RRIRWRPPRLPRPRPRPNGYPRP the figure was 0.186. RRIRSRPPRLPRPRPRPGFEPRP: the “shrunken log2 fold change” value stood at 0.418. On to RRIRVRPPRLPRPRPRPNSVPRP, for which the “shrunken log2 fold change” value is -0.00107.

Turning to RRIRYRPPRLPRPRPRPEKYPRP, the “shrunken log2 fold change” value is -0.00973.

Consider RRIRKRPPRLPRPRPRPFPDPRP, for which the “shrunken log2 fold change” value is -0.112.

For the sequence RRIRWRPPRLPRPRPRPPGCPRP, the “shrunken log2 fold change” value worked out at 0.975. On to RRIRERPPRLPRPRPRPVFSPRP, for which the “shrunken log2 fold change” value is -0.191. As to RRIRQRPPRLPRPRPRPFHTPRP, the “shrunken log2 fold change” value is -0.0573. Take RRIRARPPRLPRPRPRPQKDPRP: the “shrunken log2 fold change” value was 0.0524. Regarding RRIRCRPPRLPRPRPRPVPHPRP, the “shrunken log2 fold change” value stood at 0.0468. Then RRIRHRPPRLPRPRPRPPLGPRP, with 0.25; and RRIRYRPPRLPRPRPRPNPMPRP, with -0.788. Take RRIRPRPPRLPRPRPRPEGRPRP: the “shrunken log2 fold change” value was 0.545. With RRIRGRPPRLPRPRPRPQKLPRP, the “shrunken log2 fold change” value was 0.13.

On to RRIRWRPPRLPRPRPRPIARPRP, for which the “shrunken log2 fold change” value is -0.00663. As to RRIRTRPPRLPRPRPRPTPLPRP, the “shrunken log2 fold change” value amounted to 0.147. Turning to RRIRKRPPRLPRPRPRPHRQPRP, the “shrunken log2 fold change” value came to 0.277. As to RRIRYRPPRLPRPRPRPKCNPRP, the “shrunken log2 fold change” value was -0.533. With RRIRSRPPRLPRPRPRPRVSPRP the figure was -0.0241; with RRIRLRPPRLPRPRPRPGPLPRP, 0.287; with RRIRPRPPRLPRPRPRPLHKPRP, -0.00927. Then RRIRARPPRLPRPRPRPHKHPRP, with 0.0909; and RRIRERPPRLPRPRPRPGKDPRP, with -0.24; and RRIRTRPPRLPRPRPRPLPPPRP, with 0.333. Regarding RRIRCRPPRLPRPRPRPSHYPRP, the “shrunken log2 fold change” value is -0.349. Then RRIRGRPPRLPRPRPRPFMVPRP, with -0.131; and RRIRERPPRLPRPRPRPRDHPRP, with 0.162; and RRIRGRPPRLPRPRPRPVEDPRP, with 0.0393. In the case of RRIRRRPPRLPRPRPRPPVRPRP, the “shrunken log2 fold change” value came out at 0.437. On to RRIRDRPPRLPRPRPRPKREPRP, for which the “shrunken log2 fold change” value is -0.024. Turning to RRIRDRPPRLPRPRPRPPKFPRP, the “shrunken log2 fold change” value is -0.154. For RRIRERPPRLPRPRPRPEYMPRP, the “shrunken log2 fold change” value was -0.0257. For the sequence RRIRTRPPRLPRPRPRPLGPPRP, the “shrunken log2 fold change” value is 0.114. For RRIRTRPPRLPRPRPRPPWGPRP, the “shrunken log2 fold change” value amounted to 0.0724.

Regarding RRIRIRPPRLPRPRPRPPELPRP, the “shrunken log2 fold change” value is -0.123. With RRIRYRPPRLPRPRPRPDISPRP the figure was -0.415. Regarding RRIRFRPPRLPRPRPRPMWQPRP, the “shrunken log2 fold change” value is -0.00366.

As to RRIRPRPPRLPRPRPRPTHPPRP, the “shrunken log2 fold change” value came to 0.653. With RRIRYRPPRLPRPRPRPNCQPRP the figure was -0.0282; with RRIRDRPPRLPRPRPRPLMEPRP, 0.117. For RRIRARPPRLPRPRPRPVTWPRP, the “shrunken log2 fold change” value was determined as 0.291. As to RRIRFRPPRLPRPRPRPNMVPRP, the “shrunken log2 fold change” value was -0.124.

Take RRIRCRPPRLPRPRPRPTKHPRP: the “shrunken log2 fold change” value was determined as 0.00206. Consider RRIRLRPPRLPRPRPRPYHLPRP, for which the “shrunken log2 fold change” value was -0.213. For the sequence RRIRMRPPRLPRPRPRPTVHPRP, the “shrunken log2 fold change” value came to 0.102. Then RRIRRRPPRLPRPRPRPSIVPRP, with 0.26; and RRIRGRPPRLPRPRPRPMLQPRP, with 0.324; and RRIRPRPPRLPRPRPRPHVFPRP, with -0.327.
